The nanobody polyreactivity screen of Harvey et al. (2022)

Assay: yeast display, Sf9 membrane polyspecificity reagent, FACS + sequencing; frameworks hold sequencing errors
Method in brief: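 In a synthetic yeast display library (Saccharomyces cerevisiae BJ5465), nanobody expression was induced with galactose for 36–48 hours. FACS gates were set low and high (top ~1%) using anti-HA fluorescence for expression and streptavidin fluorescence for binding of the Sf9 membrane reagent. Each polyreactivity label is drawn from the gate of origin.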

Row | Sequence | polyreactivity (PSR sort gate)
1 | QVQLVESGGGLVQAGGSLRLSCAASGFTFRLYAMGWYRQAPGKERELVATITRRGGITTYADSVKGRFTISRDNAKNTVYLQMNSLKPEDTAVYYCNAGKYVYATSQYDYWGQGTQVTVSS | high polyreactivity
2 | QVQLVESGGGLVQAGGSLRLSCAASGFTFRLYTMGWYRQAPGKERELVAAITYSGDSTYYADSVKGRFTISRDYAKNTVYLQMNSLKPEDTAVYYCAARKYYARYYWGQGSQVTVSS | high polyreactivity
3 | QVQLVESGGGLVQAGGSLRLSCAASGFTFRNYAMGGYRQAPGKERELVAAISKSGGSTYYADSVKGRFTISRDNAKNTVYLQMNSLNPEDTAVYYCATDYLYVYGFEYYYWGQGTQVTVSS | high polyreactivity
4 | QVQLVESGGGLVQAGGSLRLSCAASGFTFRQYAMGWYRQAPGKEREFFADITFSGDNTRYADSVKGRFTISRDNAKNTVYLQMNSLKPEDTGVYYCNADYLVSWLQFDYWGQGTQVTVSS | low polyreactivity
5 | QVQLVESGGGLVQAGGSLRLSCAASGFTFRRNAMGWYIQAPGKERELVAAINVRDGSTYYADSVKGRFTISRDNAKNTVYLQMNSLKPEDTAVYYCAAEFFQGYYWYYYWGQGTQVTVSS | high polyreactivity
6 | QVQLVESGGGLVQAGGSLRLSCAASGFTFRRNAMGWYRKAPGKERELVAAISSSGGSTNYADSVKGRFTISRDNAKNTVYLQMNSLKPEDTAVYYCNRGSRRLGSIVWYDYWGQGTQVTVSS | high polyreactivity
7 | QVQLVESGGGLVQAGGSLRLSCAASGFTFRRNAMGWYRQAPGKERELVAAISRGGSSTYYADSVKGRFTISRDNAKNTVYLQMNSLKPEDTAVYYCGARIPNQQGYGYWGQVTQVTVSS | high polyreactivity
8 | QVQLVESGGGLVQAGGSLRLSCAASGFTFRRYAMGWYRQAPGKEREFVAAITTRGSNTYYADSVKGRFTISRDNAKNTVYLQMNSLKPEDTAVYYCAASYYPPGHYDYWGQGTQVTVSS | high polyreactivity
9 | QVQLVESGGGLVQAGGSLRLSCAASGFTFRRYAMGWYRQAPGKERELVAAISTSGGRTYYADSVKGRFTISRDNAKNTVYLQMNSLKPEDTAVYYCAARIPKQRDVRGSGMNYWGQGTQVTVSS | high polyreactivity
10 | QVQLVESGGGLVQAGGSLRLSCAASGFTFRRYAMGWYRQAPGKERELVAAITRGGSTYYADSVKGRFTISRDNAKNTVYLQMNSLKPEDTAVYYCAARGGTRYSTRSYGYWGQGTQVTVSS | high polyreactivity
11 | QVQLVESGGGLVQAGGSLRLSCAASGFTFRRYAMGWYRQAPGKERELVAGITGRGGSTYYADSVKGRFTISRDNAKNTVYLQMNSLKPEDTAVYYCNKPRAARGYLTGQLDYWGQGTQVTVSS | high polyreactivity
12 | QVQLVESGGGLVQAGGSLRLSCAASGFTFRRYAMGWYRQAPGKERELVASIASSTGGSTYADSVKGRFTISRDNAKNTVYLQMNSLKPEDTAVYSCAADWSRFYLGHRTGSGYEYWGQGTQVTVSS | low polyreactivity
13 | QVQLVESGGGLVQAGGSLRLSCAASGFTFRSNAMGWYRQAPGKARELVAAISYSGDSTYYADSVKGRFTISRDTAKNTVYLQMNSLKPEDTAVYYCAADGYDQWGRVGVYLIWTSYDYWGQGTQVTVSS | high polyreactivity
14 | QVQLVESGGGLVQAGGSLRLSCAASGFTFRSNAMGWYRQAPGKVRELVAAISYSGDSTYYADSVKGRFTISRDNAMNTVYLQMNSLKPEDTAVYYCNAVGSGYRSWYDYWGQGTQVTVSS | high polyreactivity
15 | QVQLVESGGGLVQAGGSLRLSCAASGFTFRTYAMGWYRQAPGKERELVAAISKSGGSTYYADSVKGRFTISRDNAKNTVYLQMNSLTPEDTAVYYCNAGEASWFSLHYYWGQGTQVTVSS | high polyreactivity
16 | QVQLVESGGGLVQAGGSLRLSCAASGFTFRVNAMGWYRQAPGKERELVAAISSGGGITYYADSVKGRYTISRDNAKNTVYLQMNSLKPEDTAVYYCAARENRYLERDYWGQGTQVNVSS | low polyreactivity
17 | QVQLVESGGGLVQAGGSLRLSCAASGFTFRVNAMGWYRQAPGKERELVAAISSGGSTNYADSVKGRFTISRDNAKNTVYLQMNSLKPEDTAVYYCAKRFKYIYYWGQGTQVTVSS | high polyreactivity
18 | QVQLVESGGGLVQAGGSLRLSCAASGFTFRVNAMGWYRQAPGKERELVAAISWTGGSTYYADSVKGRFTISRDNAKNTVYLQMNSLKPEDTAVYYCATRFGGRYNEFGFWGQGTQVTVSS | low polyreactivity
19 | QVQLVESGGGLVQAGGSLRLSCAASGFTFRVYAMGWNRQAPGKEREFVASITWGGGRPYYADSVKGRFTISRDNAKNTVYLQMNSLKPEDTAVYYCAAYGRLDSYVSYYYWGQGTQVTVSS | high polyreactivity
20 | QVQLVESGGGLVQAGGSLRLSCAASGFTFRVYAMGWYRQPPGKERELVAVISGTGGRTYYADSVKGRFTISRDNAKNTVYLQMNSLKPEDTAVYYCAAVGLTPKAIWTSDYWGQGTQVTVSS | high polyreactivity
21 | QVQLVESGGGLVQAGGSLRLSCAASGFTFRWYAMGWYRQAPGKERELVAAITSDDNTYYADSVKGRFTISRDNAKNTVYLQMNSLKPEDTAVYYCAAEYADYWTYNMGYWGQGTQVTVSS | low polyreactivity
22 | QVQLVESGGGLVQAGGSLRLSCAASGFTFRWYAMGWYRQAPGKERELVAAITSRGGTTYYADSVKGRFTISRDNAKNTVYLQMNSLKPEDTAVYYCAALNSGYIGMDYWGQGTQVTVSS | high polyreactivity

Row | Sequence | polyreactivity (PSR sort gate)
23 | QVQLVESGGGLVQAGGSLRLSCAASGFTFRYYAMGWSRQDPGKERELVAAITNVGSTNYADSVKGRFTISRDNAKYTVYLLMNSLKPEDTAVYYCNAPRTPWRRSYDYWGQGTQVTVSW | high polyreactivity
24 | QVQLVESGGGLVQAGGSLRLSCAASGFTFRYYAMGWYRQAPGKEREFVAAITYNGVSTYYADSVKGRFTISRDNAKNTVYLQMNSLKPEDTAVYYCAADVLLSRSNTPQRPSRLYYWGQGTQVTVSS | high polyreactivity
25 | QVQLVESGGGLVQAGGSLRLSCAASGFTFRYYAMGWYRQAPGKERELLAAISWSGGSTYYADSVKGRFTISRDNAKNTVYLQMNSLNPEDTAVYYCAADSVFGGRGRYQASRYYYWGQGPQVTVSS | high polyreactivity
26 | QVQLVESGGGLVQAGGSLRLSCAASGFTFRYYAMGWYRQAPGKERELVAAISRSGGSTYYADSVKGRFTISRDNAKNTVYLQMNSLKPEDTAVYYCAARSHGWTPHGYDYWGQGTQVTVSS | high polyreactivity
27 | QVQLVESGGGLVQAGGSLRLSCAASGFTFRYYAMGWYRQAPGKERELVAAISYRGGRTYYADSVKGRFTISRDNAKNTVYLQMNSLKPEDTAVYYCAVDYTLADVIYDYWGQGTQVTVSS | high polyreactivity
28 | QVQLVESGGGLVQAGGSLRLSCAASGFTFRYYAMGWYRQAPGKERELVAAITGSGGRTYYADSVKGRFTISRDNAKNTVYLQMNSLKPEDTAVYYCARDVDPRGRYYWGQGTQVTVSS | high polyreactivity
29 | QVQLVESGGGLVQAGGSLRLSCAASGFTFRYYAMGWYRQAPGKERELVAAITSGDSTYYADSVKGRFTISRDNAKNTVYLQMNSLKPEDTAVYYCNKDRRPTADFGYWGQGTQVTVSS | high polyreactivity
30 | QVQLVESGGGLVQAGGSLRLSCAASGFTFRYYAMGWYRQAPGKERELVADITWSGTRTYYADSVKGRFTISRDNAKNTVYLQMNSLKPEDTAVYYCAKVTWVRGSYYRNKSSIYDYWGQGTQVTVSS | high polyreactivity
31 | QVQLVESGGGLVQAGGSLRLSCAASGFTFRYYAMGWYRQAPGKERELVASINWSGGSTYYADSVKGRFTISRDNAKNTVYLQMNSLKPEDTAVYYCAADSIWGHYFARFDYWGQGTQVTVSS | high polyreactivity
32 | QVQLVESGGGLVQAGGSLRLSCAASGFTFRYYAMGWYRQAPGKERELVASTYYADYVKGRFTISRDNAKNTVYLQMNSLKPEDTAVYYCNVDGTSSSPFVQKHKEMDYWGQGTQVTVSS | low polyreactivity
33 | QVQLVESGGGLVQAGGSLRLSCAASGFTFRYYAMGWYRQAPGKERELVATIRTSGGSTYYADSVKGRFTISRDNAKNTVYLQMNSLKPEDTAVYYCAVRGRNWQHTRFNYWGQGTQVTVSS | high polyreactivity
34 | QVQLVESGGGLVQAGGSLRLSCAASGFTFRYYAMGWYRQAPGKEWELVARITWNGGRTYYADSVKGRFTISRDNAKNTLYLQMNSLKPEDTAVYYCAARGFYRSYYWGQGTQVTVSS | high polyreactivity
35 | QVQLVESGGGLVQAGGSLRLSCAASGFTFRYYAMGWYRQAPGTERELVAGITRSGGSTYYADSVKGRFTISRDNAKNTVYLQMNSLKPEDTAVYYCAAYRSIYGTRAPREFESWGQGTQVTVSS | high polyreactivity
36 | QVQLVESGGGLVQAGGSLRLSCAASGFTFRYYAMVWYRQAPGKERELVAAISYSGGSTYYADSVKGRFTISRDNAKNTVYLQMNCLKPEDTAVYYCAAYYPYSREMGYWGQGTQVTVSS | high polyreactivity
37 | QVQLVESGGGLVQAGGSLRLSCAASGFTFRYYVMGWYRQAPGKERELVAAITSGGRTHYADSVKGRFTISRDNAKNTDYLQMNSLKPEDTAVYYCAVRTQFAGLHYYYGYWGQGTQVTVSS | high polyreactivity
38 | QVQLVESGGGLVQAGGSLRLSCAASGFTFRYYVMGWYRQAPGKERELVAAITSGGSTNYADSVKGRFTISRDNAKNTVYLQMNSLKPEDTAVYYCYAAYRSYGRFDYWGQGTQVTVSS | low polyreactivity
39 | QVQLVESGGGLVQAGGSLRLSCAASGFTFRYYVMGWYRQSPGKERELVAAISWSGGSTYYADSVKGRFTISRDNAKNTVYLQMNSLKPEDTAVYYCNAASLSKSDYWGQGTQVTVSS | high polyreactivity
40 | QVQLVESGGGLVQAGGSLRLSCAASGFTFRYYVMGWYRQSPGKERELVASISRAGSTTNYADSVKGRFTISRDNAKNTVYLQMNSLNPEDTAVYYCNVVITPGYSYDISRGEGYWGQGTQVTVSS | high polyreactivity
41 | QVQLVESGGGLVQAGGSLRLSCAASGFTFSAYTMGWYRQAPGKERELVADISSRGGSTYYADSVKGRFTISRDNAKNTVYLQMNSLKPEDTAVYYCAAVWYWTQDYDYWGQGTQVTVSS | low polyreactivity
42 | QVQLVESGGGLVQAGGSLRLSCAASGFTFSENAMGWYRQAPGRERELVADIPRSGGNTHYADSEKGRFTISRDNAKNTVYLQMNSLKPEDTAVYYCAARVQWLGYGYYYWGQGTQVTVSS | high polyreactivity
43 | QVQLVESGGGLVQAGGSLRLSCAASGFTFSFNAMGWYRQAPGKERELVAAITTADSTYYADSVKGRFTISRDNAKNTVYLQMNSLKPEDTAVYYCAADSYYYGYQGQTQYGWVWYDYWGQGTQVTVSS | low polyreactivity
